Laboratory results: patent publication US20140243227A1, “CULTURE MEDIA FOR STEM CELLS” (Koninklijke Nederlandse Akademie van Wetenschappen, priority 2011, published 2014)

Experiments:
[1] = system: human colon crypts; experiment: Screening of reagents for optimization of human intestinal organoids culture (plating efficiency); assay type: cell-based; settings: First screening (WENR)
[2] = system: pancreatic organoids; experiment: Effect of Noggin on gene expression of pancreatic organoids in expansion medium; settings: EGFRAN vs EGFRA medium
[3] = system: Barrett's Esophagus epithelium; experiment: Culture of Barrett's esophagus (BE) organoids; settings: FGF10 added to HISC condition
[4] = system: mouse organoids; experiment: M cell development in organoids stimulated with RANK ligand; assay type: cell-based
Experimental: FIG. 48: A) Mouse organoids were cultured in the presence of different doses recombinant mouse RANKL for 72 h. mRNA expression levels for RANK, the transciption factor SpiB and the M cell-specific markers GP2 and AnnexinV were determined by qPCR.

B1: Follistatin: growth factor (Peprotech) (protein, UniProt P19883 30-344, looked up)
Follistatin: GNCWLRQAKNGRCQVLYKTELSKEECCSTGRLSTSWTEEDVNDNTLFKWMIFNGGAPNCIPCKETCENVDCGPGKKCRMNKKNKPRCVCAPDCSNITWKGPVCGLDGKTYRNECALLKARCKEQPELEVQYQGRCKKTCRDVFCPGSSTCVVDQTNNAYCVTCNRICPEPASSEQYLCGNDGVTYSSACHLRKATCLLGRSIGLAYEGKCIKAKSCEDIQCTGGKKCLWDFKVGRGRCSLCDELCPDSKSDEPVCASDNATYASECAMKEAACSSGVLLEVKHSGSCNSISEDTEEEEEDEDQDYSFPISSILEW
Activity (plating efficiency compared with control after 4 days culture) [1]: 0

B2: Noggin: BMP inhibitor (protein, UniProt Q13253 28-232, looked up)
Noggin: QHYLHIRPAPSDNLPLVDLIEHPDPIFDPKEKDLNETLLRSLLGGHYDPGFMATSPPEDRPGGGGGAAGGAEDLAELDQLLRQRPSGAMPSEIKGLEFSEGLAQGKKQRLSKKLRRKLQMWLWSQTFCPVLYAWNDLGSRFWPRYVKVGSCFSKRSCSVPEGMVCKPSKSVHLTVLRWRCQRRGGQRCGWIPIQYPIISECKCSC
Lgr5 expression relative to organoids cultured without Noggin [2]: 2 fold

B3: BDNF: brain-derived neurotrophic factor (protein, UniProt P23560 19-247, looked up)
Neurotrophic factor BDNF …: APMKEANIRGQGGLAYPGVRTHGTLESVNGPKAGSRGLTSLADTFEHVIEELLDEDQKVRPNEENNKDADLYTSRVMLSSQVPLEPPLLFLLEEYKNYLDAANMSMRVRRHSDPARRGELSVCDSISEWVTAADKKTAVDMSGGTVTVLEKVPVSKGQLKQYFYETKCNPMGYTKEGCRGIDKRHWNSQCRTTQSYVRALTMDSKKRIGWRFIRIDTSCVCTLTIKRGR
Activity (plating efficiency compared with control after 4 days culture) [1]: 0

B4: Cyr61: growth factor (Peprotech) (protein, UniProt O00622 25-381, looked up)
CCN family member 1: TCPAACHCPLEAPKCAPGVGLVRDGCGCCKVCAKQLNEDCSKTQPCDHTKGLECNFGASSTALKGICRAQSEGRPCEYNSRIYQNGESFQPNCKHQCTCIDGAVGCIPLCPQELSLPNLGCPNPRLVKVTGQCCEEWVCDEDSIKDPMEDQDGLLGKELGFDASEVELTRNNELIAVGKGSSLKRLPVFGMEPRILYNPLQGQKCIVQTTSWSQCSKTCGTGISTRVTNDNPECRLVKETRICEVRPCGQPVYSSLKKGKKCSKTKKSPEPVRFTYAGCLSVKKYRPKYCGSCVDGRCCTPQLTRTVKMRFRCEDGETFSKNVMMIQSCKCNYNCPHANEAAFPFYRLFNDIHKFRD
Activity (plating efficiency compared with control after 4 days culture) [1]: 0

B5: FGF10: human recombinant FGF10 (Peprotech) (protein, UniProt O15520 38-208, looked up)
Fibroblast growth factor 10: QALGQDMVSPEATNSSSSSFSSPSSAGRHVRSYNHLQGDVRWRKLFSFTKYFLKIEKNGKVSGTKKENCPYSILEITSVEIGVVAVKAINSNYYLAMNKKGKLYGSKEFNNDCKLKERIEENGYNTYASFNWQHNGRQMYVALNGKGAPRRGQKTRRKNTSAHFLPMVVHS
Culture duration of BE organoids [3]: > 3 months
Activity (plating efficiency compared with control after 4 days culture) [1]: 0

B6: GDNF: growth factor (Peprotech) (protein, UniProt P39905 78-211, looked up)
Glial cell line-derived …: SPDKQMAVLPRRERNRQAAAANPENSRGKGRRGQRGKNRGCVLTAIHLNVTDLGLGYETKEELIFRYCSGSCDAAETTYDKILKNLSRNRRLVSDKVGQACCRPIAFDDDLSFLDDNLVYHILRKHSAKRCGCI
Activity (plating efficiency compared with control after 4 days culture) [1]: 0

B7: RANK ligand: RANK ligand (RANKL), recombinant (protein, UniProt O14788 140-317, looked up)
Tumor necrosis factor ligand …: IRAEKAMVDGSWLDLAKRSKLEAQPFAHLTINATDIPSGSHKVSLSSWYHDRGWAKISNMTFSNGKLIVNQDGFYYLYANICFRHHETSGDLATEYLQLMVYVTKTSIKIPSSHTLMKGGSTKYWSGNSEFHFYSINVGGFFKLRSGEEISIEVSNPSLLDPDQDATYFGAFKVRDID
Development of M cells [4]: can develop into M cells
